Laboratory results reported in US20210380703A1 (RIGEL PHARMACEUTICALS, published 2021).
Positions count from the first letter of the chain named. Each block holds one binder with its values, some of them ahead of it.

Key:
[1] = target: T1, Human ACVR2A (human, UniProt P27037 20-135, limits assumed); test: ELISA
T1 construct: also called activin receptor, type II A
Summary of the method: (§1)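 Binding signal was read by ELISA after ACVR2A-specific monoclonal antibodies were tested against human ACVR2A and mouse ACVR2A, with human Fc as the negative control.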

[2] = target: Mouse ACVR2A (mouse, UniProt P27038 20-135, limits assumed); test: ELISA
Summary of the method: as §1

[3] = target: T2, Goat anti-Human Kappa; test: ELISA; positive control
T2 construct: Positive control; also called biotinylated goat anti-human kappa light chain
Summary of the method: (§2)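 ELISA measured binding of ACVR2A-specific monoclonal antibodies to human and mouse ACVR2A. Biotinylated goat anti-human kappa light chain served as positive control and human Fc as negative control.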

[4] = target: mouse ACVR2A (mouse, UniProt P27038 20-135, limits assumed); test: ELISA
Summary of the method: as §1

[5] = target: human ACVR2A (human, UniProt P27037 20-135, limits assumed); test: ELISA
Summary of the method: as §1

[6] = target: T3, biotinylated goat anti-human kappa light chain; test: ELISA; positive control
T3 construct: Positive control of the ELISA
Summary of the method: as §2
Also: test concentration or dose not given here.

human ACVR2A, sequence (P27037 20-135 limits assumed): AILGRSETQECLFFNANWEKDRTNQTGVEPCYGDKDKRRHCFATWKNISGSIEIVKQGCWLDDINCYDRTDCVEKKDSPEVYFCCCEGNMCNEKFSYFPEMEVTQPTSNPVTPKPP
mouse ACVR2A, sequence (P27038 20-135 limits assumed): as the sequence (P27037 20-135 limits assumed) above, with K20R, V73I counted along it
T1 sequence (P27037 20-135 limits assumed): as the sequence (P27037 20-135 limits assumed) above
Mouse ACVR2A, sequence (P27038 20-135 limits assumed): as the sequence (P27037 20-135 limits assumed) above, with K20R, V73I counted along it

- optical density [1]: 2.29 OD
- optical density [2]: 2.42 OD
- optical density [3]: 3.53 OD
B1: 367_B02 (antibody, V domains shown)
VH: EVQLLESGGGLVQPGGSLRLSCAASGFTFDSYGMNWVRQAPGKGLEWVSSINYNGGYTSYADSVKGRFTISRDNSKNTLYLQMNSLRAEDTAVYYCARSANWHDTALDYWGQGTLVTVSS
VL: not shown
notes: VH/VL only

- optical density [4]: 3.27 OD
- optical density [5]: 3.46 OD
- optical density [6]: 3.58 OD
B2: 370_A09 (antibody, V domains shown)
VH: B1 VH with D30S, G33S, S49A, S50G, S59G, N101T, A106H
VL: DIQMTQSPSSLSASVGDRVTITCRASQSILTYLNWYQQKPGKAPKLVIYAATSRASGVPSRFSGSGSGTDFTLTISSLQPEDFATYYCQQSYDTPLTFGGGTKVEIK
notes: VH/VL only

- optical density [4]: 3.05 OD
- optical density [5]: 2.81 OD
- optical density [6]: 3.4 OD
B3: 366_B04 (antibody, V domains shown)
VH: B1 VH with G33S, S49A, S50G, T58K, S59G, N101T, A106H
VL: B2 VL with L33V, A55H
notes: VH/VL only

- optical density [4]: 2.41 OD
- optical density [5]: 2.31 OD
- optical density [6]: 3.6 OD
B4: 366_C01 (antibody, V domains shown)
VH: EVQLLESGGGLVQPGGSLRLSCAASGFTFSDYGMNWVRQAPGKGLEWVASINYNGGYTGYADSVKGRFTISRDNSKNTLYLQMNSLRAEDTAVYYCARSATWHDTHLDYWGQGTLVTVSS
VL: B2 VL with L30V, V47L, R54P, D93E, T94L
notes: VH/VL only

- optical density [4]: 2.68 OD
- optical density [5]: 2.72 OD
- optical density [6]: 3.46 OD
B5: 367_H07 (antibody, V domains shown)
VH: B1 VH with D30S, G33S, S49A, S50N, S59G, N101T
VL: B2 VL with T31S, L33V, A51T, D93E, T94N
notes: VH/VL only

- optical density [4]: 3.18 OD
- optical density [5]: 3.12 OD
- optical density [6]: 3.39 OD
B6: 365_F07 (antibody, V domains shown)
VH: B1 VH with D30S, G33S, S50N, T58K, N101T
VL: B2 VL with T31S, L33V, T94L
notes: VH/VL only

- optical density [4]: 2.41 OD
- optical density [5]: 2.18 OD
- optical density [6]: 3.45 OD
B7: 367_A09 (antibody, V domains shown)
VH: B1 VH with S49A, S50G, N101T, A106H
VL: B2 VL with T31S, L33V, A55H
notes: VH/VL only

- optical density [4]: 3.28 OD
- optical density [5]: 3.18 OD
- optical density [6]: 3.51 OD
B8: 367_A01 (antibody, V domains shown)
VH: B1 VH with D30S, G33S, S49A, S59G, N101T, A106H
VL: B2 VL with V47L, T94L
notes: VH/VL only

- optical density [4]: 2.61 OD
- optical density [5]: 2.45 OD
- optical density [6]: 3.5 OD
B9: 365_E02 (antibody, V domains shown)
VH: B1 VH with D30S, G33S, S49A, S50N, R98K, N101T, A106H
VL: B2 VL with L30I, T31S, V47L, D93E, T94N
notes: VH/VL only

- optical density [4]: 1.12 OD
- optical density [5]: 1.15 OD
- optical density [6]: 3.31 OD
B10: 366_A03 (antibody, V domains shown)
VH: B1 VH with G33S, S49A, S50G, G55S, T58K, S59G, N101T, A106H
VL: B2 VL with L30S, T31S, V47L, R54L, D93S, T94N
notes: VH/VL only

- optical density [4]: 2.9 OD
- optical density [5]: 2.77 OD
- optical density [6]: 3.51 OD
B11: 365_A01 (antibody, V domains shown)
VH: B1 VH with D30S, S31D, S49A, S50G, N101T, A106H
VL: B2 VL with L33V, A51T, R54L, D93S
notes: VH/VL only

- optical density [4]: 3.04 OD
- optical density [5]: 3.03 OD
- optical density [6]: 3.43 OD
B12: 366_C02 (antibody, V domains shown)
VH: B1 VH with D30S, S31D, G33S, S49A, S50N, S59G, N101T, A106H
VL: B2 VL with L30V, T31S, V47L, T94N
notes: VH/VL only

- optical density [4]: 2.27 OD
- optical density [5]: 2.38 OD
- optical density [6]: 3.52 OD
B13: 367_F02 (antibody, V domains shown)
VH: B1 VH with G33S, S49A, S50N, N101T, A106H
VL: B2 VL with L30I, T31S, L33V, V47L, A55H, D93E, T94S
notes: VH/VL only

- optical density [4]: 2.62 OD
- optical density [5]: 2.41 OD
- optical density [6]: 3.38 OD
B14: 366_D07 (antibody, V domains shown)
VH: not shown
VL: B2 VL with V47L, R54L, D93S, T94S
notes: VH/VL only

- optical density [4]: 2.25 OD
- optical density [5]: 2.24 OD
- optical density [6]: 3.41 OD
B15: 365_A07 (antibody, V domains shown)
VH: B1 VH with D30S, S49A, S50G, G55S, T58K, S59G, N101T, A106H
VL: B2 VL with L30V, T31S, V47L, D93N, T94L
notes: VH/VL only

- optical density [4]: 3.32 OD
- optical density [5]: 3.26 OD
- optical density [6]: 3.28 OD
B16: 365_B09 (antibody, V domains shown)
VH: B1 VH with G33S, S49A, S50G, G55S, T58K, N101T, A106H
VL: B2 VL with T31R, V47L, R54L, A55H, T94N
notes: VH/VL only

- optical density [4]: 2.51 OD
- optical density [5]: 2.26 OD
- optical density [6]: 3.47 OD
B17: 365_F04 (antibody, V domains shown)
VH: B1 VH with D30S, S49A, S50G, S59G, N101T, A106H
VL: B2 VL with L30V, L33V, V47L
notes: VH/VL only

- optical density [4]: 2.48 OD
- optical density [5]: 2.27 OD
- optical density [6]: 3.44 OD
B18: 367_F05 (antibody, V domains shown)
VH: B1 VH with D30S, S49A, S59G, N101T
VL: B2 VL with T31S, L33V, V47L, D93S, T94S
notes: VH/VL only

- optical density [4]: 2.61 OD
- optical density [5]: 2.25 OD
- optical density [6]: 3.63 OD
B19: 365_F08 (antibody, V domains shown)
VH: B1 VH with S31D, S49A, S50N, N101T, A106H
VL: B2 VL with T31S, L33V, V47L, A55H, D93S, T94L
notes: VH/VL only

- optical density [4]: 2.49 OD
- optical density [5]: 2.19 OD
- optical density [6]: 3.45 OD
B20: 365_A10 (antibody, V domains shown)
VH: B1 VH with D30S, N35H, S49A, S50G, G55S, N101T, A106H
VL: B2 VL with A51V, R54L, T94S
notes: VH/VL only

- optical density [4]: 2.74 OD
- optical density [5]: 2.44 OD
- optical density [6]: 3.47 OD
B21: 366_H05 (antibody, V domains shown)
VH: B1 VH with N35H, S49A, N101T, A106H
VL: B2 VL with T31S, L33V, V47L, R54L, T94L
notes: VH/VL only

- optical density [4]: 2.72 OD
- optical density [5]: 2.58 OD
- optical density [6]: 3.51 OD
B22: 365_D05 (antibody, V domains shown)
VH: B1 VH with G33S, S49A, S50G, N101T, A106H
VL: B2 VL with L33V, V47L, D93N, T94S
notes: VH/VL only

- optical density [4]: 1.92 OD
- optical density [5]: 1.94 OD
- optical density [6]: 3.17 OD
B23: 365_C07 (antibody, V domains shown)
VH: B1 VH with D30S, S31D, S49A, N101T
VL: B2 VL with L30V, T31S, L33V, V47L
notes: VH/VL only

- optical density [4]: 2.92 OD
- optical density [5]: 2.61 OD
- optical density [6]: 3.71 OD
B24: 368_C01 (antibody, V domains shown)
VH: B1 VH with S49A, S50G, S59G, N101T
VL: B2 VL with L30I, V47L, T94S
notes: VH/VL only

- optical density [4]: 2.75 OD
- optical density [5]: 2.74 OD
- optical density [6]: 3.55 OD
B25: 365_G12 (antibody, V domains shown)
VH: B1 VH with D30S, S49A, S50G, G55S, N101T
VL: B2 VL with T31S, L33V, D93S, T94N
notes: VH/VL only

- optical density [4]: 2.81 OD
- optical density [5]: 2.3 OD
- optical density [6]: 3.51 OD
B26: 367_C03 (antibody, V domains shown)
VH: B1 VH with D30S, G33S, S49A, S50N, S59G, N101T
VL: B2 VL with T31S, L33V, A51T, D93E, T94N
notes: VH/VL only

- optical density [4]: 3.2 OD
- optical density [5]: 3.02 OD
- optical density [6]: 3.29 OD
B27: 367_G07 (antibody, V domains shown)
VH: B1 VH with G33S, S49A, S50N, S59G, N101T, A106H
VL: B2 VL with L33V, V47L, T94N
notes: VH/VL only

- optical density [4]: 2.03 OD
- optical density [5]: 1.87 OD
- optical density [6]: 3.44 OD
B28: 367_E02 (antibody, V domains shown)
VH: B1 VH with G33S, S49A, S50G, S59G, N101T, A106H
VL: not shown
notes: VH/VL only

- optical density [4]: 1.03 OD
- optical density [5]: 0.738 OD
- optical density [6]: 3.52 OD
B29: 368_C06 (antibody, V domains shown)
VH: B1 VH with G33S, S49A, S50G, T58K, N101T, A106H
VL: not shown
notes: VH/VL only

- optical density [4]: 2.6 OD
- optical density [5]: 2.62 OD
- optical density [6]: 3.48 OD
B30: 366_A05 (antibody, V domains shown)
VH: B1 VH with D30S, G33S, S49A, S50G, G55S, S59G, N101T, A106H
VL: B2 VL with L33V, R54L, D93N
notes: VH/VL only

- optical density [4]: 1.93 OD
- optical density [5]: 1.79 OD
- optical density [6]: 3.28 OD
B31: 366_A09 (antibody, V domains shown)
VH: B1 VH with D30S, S31D, N35H, S49A, G55S, N101T, A106H
VL: B2 VL with V47L, A55H, D93E
notes: VH/VL only

- optical density [4]: 2.18 OD
- optical density [5]: 2.05 OD
- optical density [6]: 3.27 OD
B32: 365_C09 (antibody, V domains shown)
VH: B1 VH with D30S, S31D, S50G, T58K, N101T, A106H
VL: B2 VL with L30V, T31S, L33V, V47L
notes: VH/VL only

- optical density [4]: 2.53 OD
- optical density [5]: 2.65 OD
- optical density [6]: 3.38 OD
B33: 365_B03 (antibody, V domains shown)
VH: B1 VH with D30S, G33S, S49A, S50G, S59G, N101T, A106H
VL: B2 VL with L30V, T31S, V47L, D93E, T94N
notes: VH/VL only

- optical density [4]: 2.55 OD
- optical density [5]: 2.27 OD
- optical density [6]: 3.57 OD
B34: 366_D02 (antibody, V domains shown)
VH: B1 VH with D30S, G33S, S49A, N101T, A106H
VL: B2 VL with T31S, L33V, V47L, A51T, R54L, T94L
notes: VH/VL only
